Experimental data as given in PMC4174439 (RNA, 2014).

Molecular target: the molecule itself
Assay: SDS-PAGE

B1: Cd-HfqHis6 (Clostridium difficile Hfq bearing a C-terminal His-tag) (natural protein, Clostridium difficile strain 630, UniProt Q187T2 1-86, looked up)
chain: MKNTVLNLQDLFLNNARKERIPVTIYLVNGVQVKGLVKGFDSYIILIEGDNRQQNMIYKHAVSTIQPGKYINLTNQNQNNNNNNNR
With B1 the “stoichiometry N” value was 6.
